Reference: article PMC6021111, “Murine leukemia virus p12 tethers the capsid-containing pre-integration complex to chromatin by binding directly to host nucleosomes in mitosis” (PLoS Pathogens, 2018)

Tested on: GST-p12_WT
Experiment: SILAC-MS of proteins enriched with GST-p12_WT relative to GST
Format: binding, Mo-MLV
Conditions: for SDs from the mean: log2(GST-p12_WT, Heavy/GST, Light)
Excerpt: To test whether GST-p12 was acting like the p12 region of Gag, we used a global proteomic approach based on stable isotope labelling by amino acids in cell culture (SILAC)-mass spectrometry (MS) to look for host proteins that interact with GST-p12 [35, 36]. A schematic diagram of the workflow is illustrated in Fig 4A. Briefly, GST, GST-p12_mut14 and GST-p12_WT were transiently-expressed in 293T cells cultured in light (R0/K0), medium (R6/K4) and heavy (R10/K8) SILAC media, respectively. Next, lysates of nocodazole treated transfected cells were prepared, normalised and used for parallel pull-down assays with glutathione-sepharose beads. The eluates from the beads were then pooled in a 1:1:1 ratio and subjected to LC-MS/MS analysis. The experiment was performed using biological replicates to test reproducibility of the mass-spec hits. The pull-down assays for this experiment were performed using mitotic cell lysates to facilitate identification of any potential chromatin interactions that were previously missed.
After removal of obvious contaminants (e.g. keratin) and non-quantified hits, 948 and 879 proteins were identified in replicates 1 and 2 (R1 and R2) of the experiment respectively (the false discovery rate (FDR) was set at 5%). To select proteins enriched in the heavy-labelled (H) GST-p12_WT sample relative to the light-labelled (L) GST sample, we compared the log2(H/L) silac ratios of the mass-spectrometry hits. When plotted as a frequency distribution, the log2(H/L) ratios of each replicate fitted well to a normal distribution curve (R^2 ≥ 0.98), allowing the mean and standard deviation to be accurately estimated (Fig 4B). In this experiment, contaminants/non-specifically bound cellular proteins were assumed to cluster around the mean of the distribution. […] Twenty one such proteins were identified in R1 and 22 identified in R2 (Fig 4B Venn diagram). […] These proteins were then ranked based on normalised abundance in the group. In mass-spectrometry analysis, larger proteins are in general assigned higher scores. Therefore, to control for protein size, we divided the number of peptide spectral matches identified for each protein with its length and then normalised the values across the group (Fig 4C and 4D). When ranked this way, the clathrin heavy chain (CLTC), clathrin interactor 1 (CLINT1) and NEDD4-like E3 ubiquitin ligase (WWP2) were identified as the top three hits. […] The function of clathrin in MLV infection is unclear. […] Thus, clathrin binding may be relevant to the early stages of MLV replication and should be investigated further.
For SILAC-MS experiments, 293T cells were grown is media containing light (R0K0, ^12C-Arginine and ^12C-Lysine), medium (R6K4, ^13C-Arginine and Lysine-4,4,5,5-d4) or heavy (R10K8, ^13C+^15N-Arginine and ^13C+^15N-Lysine) versions of L-Arginine and L-Lysine amino acids (Pierce) for a minimum of 6 doublings before transient expression of GST-p12 proteins. After performing the glutathione-sepharose pull-down assays equivalent volumes of the beads eluates were pooled and submitted to the Bristol University Proteomics Facility for RP nano-LC-MS/MS analysis. This analysis was performed on an LTQ-Orbitrap Velos mass spectrometer in line with a Dionex Ultimate 3000 nanoHPLC system as described in [53].
Supplementary file ppat.1007117.s005.xlsx: S1 Table Results from the first SILAC-MS analysis. GST, Mo-MLV GST-p12_mut14 or GST-p12_WT were transiently-expressed in 293T cells cultured in light (R0/K0), medium (R6/K4) and heavy (R10/K8) SILAC media, respectively. Mitotic cell lysates were subsequently used for glutathione-sepharose bead pull-down assays. Bead eluates were pooled in a 1:1:1 ratio and then analysed by LC-MS/MS. […] (XLSX) Click here for additional data file.

| Molecule | Normalised (PSMs/Length) (Replicate 1) | PSMs (Replicate 1) | PSMs/Length (Replicate 1) | Normalised (PSMs/Length) (Replicate 2) | PSMs (Replicate 2) | PSMs/Length (Replicate 2) | SDs from the mean (Replicate 2) |
| --- | --- | --- | --- | --- | --- | --- | --- |
| Clathrin interactor 1: Q14677 (protein) MLNMWKVRELVDKATNVVMNYSEIESKVREATNDDPWGPSGQLMGEIAKATFMYEQFPELMNMLWSRMLKDNKKNWRRVYKSLLLLAYLIRNGSERVVTSAREHIYDLRSLENYHFVDEHGKDQGINIRQKVKELVEFAQDDDRLREERKKAKKNKDKYVGVSSDSVGGFRYSERYDPEPKSKWDEEWDKNKSAFPFSDKLGELSDKIGSTIDDTISKFRRKDREDSPERCSDSDEEKKARRGRSPKGEFKDEEETVTTKHIHITQATETTTTRHKRTANPSKTIDLGAAAHYTGDKASPDQNASTHTPQSSVKTSVPSSKSSGDLVDLFDGTSQSTGGSADLFGGFADFGSAAASGSFPSQVTATSGNGDFGDWSAFNQAPSGPVASSGEFFGSASQPAVELVSGSQSALGPPPAASNSSDLFDLMGSSQATMTSSQSMNFSMMSTNTVGLGLPMSRSQNTDMVQKSVSKTLPSTWSDPSVNISLDNLLPGMQPSKPQQPSLNTMIQQQNMQQPMNVMTQSFGAVNLSSPSNMLPVRPQTNALIGGPMPMSMPNVMTGTMGMAPLGNTPMMNQSMMGMNMNIGMSAAGMGLTGTMGMGMPNIAMTSGTVQPKQDAFANFANFSK | 26.4693 | 18 | 0.0288 | 22.9214 | 16 | 0.0256 | 13.1531 |
| Clathrin light chain A: P09496 (protein) MAELDPFGAPAGAPGGPALGNGVAGAGEEDPAAAFLAQQESEIAGIENDEAFAILDGGAPGPQPHGEPPGGPDAVDGVMNGEYYQESNGPTDSYAAISQVDRLQSEPESIRKWREEQMERLEALDANSRKQEAEWKEKAIKELEEWYARQDEQLQKTKANNRVADEAFYKQPFADVIGYVTNINHPCYSLEQAAEEAFVNDIDESSPGTEWERVARLCDFNPKSSKQAKDVSRMRSVLISLKQAPLVH | 7.412 | 2 | 0.008065 | 7.2207 | 2 | 0.008065 | 7.68 |
